Experimental data taken from the supplement of paper PMC5998384.

Legend:
HeLa Kyoto [1] = assay: solubility in G1/S (NP-40 vs SDS abundance) (log2 ratio); higher = more soluble; conditions: cell cycle stage: G1/S
HeLa Kyoto [2] = assay: melting temperature (median over replicates), in situ; higher = more thermally stable
HeLa Kyoto [3] = assay: solubility change mitosis vs G1/S (difference of NP-40 vs SDS log2 ratios) (log2 ratio difference); higher = more soluble in mitosis
HeLa Kyoto [4] = assay: thermal stability score vs G1/S (z-score of summed log2 fold changes over temperatures); higher = more thermally stable than in G1/S
[5] = cell cycle stage: early G1 (4.5 h after nocodazole release)
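For melting temperature (median over replicates), in situ in this document: HeLa Kyoto cells synchronized by double thymidine or nocodazole block, proteins quantified by TMT10plex mass spectrometry, three independent biological replicates.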
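For solubility change mitosis vs G1/S (difference of NP-40 vs SDS log2 ratios) in this document: synchronized HeLa Kyoto cells (double thymidine block for G1/S, nocodazole release for mitosis), protein amounts in NP-40 versus SDS lysates quantified by mass spectrometry, three biological replicates.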
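For solubility in G1/S (NP-40 vs SDS abundance) in this document: HeLa Kyoto cells arrested at G1/S by double thymidine block, proteins quantified by TMT10plex mass spectrometry in mild NP-40 versus SDS extracts, three biological replicates.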
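For thermal stability score vs G1/S (z-score of summed log2 fold changes over temperatures) in this document: synchronized HeLa Kyoto cells, proteins quantified by TMT10plex mass spectrometry, three biological replicates, mitosis taken 0.5 h after nocodazole release, G1/S directly after double thymidine block.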

Sequence	solubility in G1/S (log2) (HeLa Kyoto [1])	melting temperature (HeLa Kyoto [2]; cell cycle stage: G1/S)	melting temperature (HeLa Kyoto [2]; cell cycle stage: mitosis)	solubility change mitosis (log2) (HeLa Kyoto [3])	thermal stability score (HeLa Kyoto [4]; [5])	thermal stability score (HeLa Kyoto [4]; cell cycle stage: mitosis)
MGPRSRERRAGAVQNTNDSSALSKRSLAARGYVQDPFAALLVPGAARRAPLIHRGYYVRARAVRHCVRAFLEQIGAPQAALRAQILSLGAGFDSLYFRLKTAGRLARAAVWEVDFPDVARRKAERIGETPELCALTGPFERGEPASALCFESADYCILGLDLRQLQRVEEALGAAGLDAASPTLLLAEAVLTYLEPESAAALIAWAAQRFPNALFVVYEQMRPQDAFGQFMLQHFRQLNSPLHGLERFPDVEAQRRRFLQAGWTACGAVDMNEFYHCFLPAEERRRVENIEPFDEFEEWHLKCAHYFILAASRGDTLSHTLVFPSSEAFPRVNPASPSGVFPASVVSSEGQVPNLKRYGHASVFLSPDVILSAGGFGEQEGRHCRVSQFHLLSRDCDSEWKGSQIGSCGTGVQWDGRLYHTMTRLSESRVLVLGGRLSPVSPALGVLQLHFFKSEDNNTEDLKVTITKAGRKDDSTLCCWRHSTTEVSCQNQEYLFVYGGRSVVEPVLSDWHFLHVGTMAWVRIPVEGEVPEARHSHSACTWQGGALIAGGLGASEEPLNSVLFLRPISCGFLWESVDIQPPITPRYSHTAHVLNGKLLLVGGIWIHSSSFPGVTVINLTTGLSSEYQIDTTYVPWPLMLHNHTSILLPEEQQLLLLGGGGNCFSFGTYFNPHTVTLDLSSLSAGQ [LCMT2]	-0.0889	51.2 °C	50.7 °C	-0.199	-0.211	-0.346
MGQIEWAMWANEQALASGLILITGGIVATAGRFTQWYFGAYSIVAGVFVCLLEYPRGKRKKGSTMERWGQKYMTAVVKLFGPFTRNYYVRAVLHLLLSVPAGFLLATILGTACLAIASGIYLLAAVRGEQWTPIEPKPRERPQIGGTIKQPPSNPPPRPPAEARKKPSEEEAAVAAGGPPGGPQVNPIPVTDEVV [CYBA]	0.005	54.8 °C	54 °C	-0.167	-0.561	-1.21
MGQREMWRLMSRFNAFKRTNTILHHLRMSKHTDAAEEVLLEKKGCTGVITLNRPKFLNALTLNMIRQIYPQLKKWEQDPETFLIIIKGAGGKAFCAGGDIRVISEAEKAKQKIAPVFFREEYMLNNAVGSCQKPYVALIHGITMGGGVGLSVHGQFRVATEKCLFAMPETAIGLFPDVGGGYFLPRLQGKLGYFLALTGFRLKGRDVYRAGIATHFVDSEKLAMLEEDLLALKSPSKENIASVLENYHTESKIDRDKSFILEEHMDKINSCFSANTVEEIIENLQQDGSSFALEQLKVINKMSPTSLKITLRQLMEGSSKTLQEVLTMEYRLSQACMRGHDFHEGVRAVLIDKDQSPKWKPADLKEVTEEDLNNHFKSLGSSDLKF [HIBCH]	0.343	49.7 °C	50.2 °C	-0.019	0.653	0.967
MGQSGRSRHQKRARAQAQLRNLEAYAANPHSFVFTRGCTGRNIRQLSLDVRRVMEPLTASRLQVRKKNSLKDCVAVAGPLGVTHFLILSKTETNVYFKLMRLPGGPTLTFQVKKYSLVRDVVSSLRRHRMHEQQFAHPPLLVLNSFGPHGMHVKLMATMFQNLFPSINVHKVNLNTIKRCLLIDYNPDSQELDFRHYSIKVVPVGASRGMKKLLQEKFPNMSRLQDISELLATGAGLSESEAEPDGDHNITELPQAVAGRGNMRAQQSAVRLTEIGPRMTLQLIKVQEGVGEGKVMFHSFVSKTEEELQAILEAKEKKLRLKAQRQAQQAQNVQRKQEQREAHRKKSLEGMKKARVGGSDEEASGIPSRTASLELGEDDDEQEDDDIEYFCQAVGEAPSEDLFPEAKQKRLAKSPGRKRKRWEMDRGRGRLCDQKFPKTKDKSQGAQARRGPRGASRDGGRGRGRGRPGKRVA [PPAN]	-1.97	52.2 °C	52 °C	1.07	-0.721	-2.53
MGRESRHYRKRSASRGRSGSRSRSRSPSDKRSKRGDDRRSRSRDRDRRRERSRSRDKRRSRSRDRKRLRRSRSRERDRSRERRRSRSRDRRRSRSRSRGRRSRSSSPGNKSKKTENRSRSKEKTDGGESSKEKKKDKDDKEDEKEKDAGNFDQNKLEEEMRKRKERVEKWREEQRKKAMENIGELKKEIEEMKQGKKWSLEDDDDDEDDPAEAEKEGNEMEGEELDPLDAYMEEVKEEVKKFNMRSVKGGGGNEKKSGPTVTKVVTVVTTKKAVVDSDKKKGELMENDQDAMEYSSEEEEVDLQTALTGYQTKQRKLLEPVDHGKIEYEPFRKNFYVEVPELAKMSQEEVNVFRLEMEGITVKGKGCPKPIKSWVQCGISMKILNSLKKHGYEKPTPIQTQAIPAIMSGRDLIGIAKTGSGKTIAFLLPMFRHIMDQRSLEEGEGPIAVIMTPTRELALQITKECKKFSKTLGLRVVCVYGGTGISEQIAELKRGAEIIVCTPGRMIDMLAANSGRVTNLRRVTYVVLDEADRMFDMGFEPQVMRIVDNVRPDRQTVMFSATFPRAMEALARRILSKPIEVQVGGRSVVCSDVEQQVIVIEEEKKFLKLLELLGHYQESGSVIIFVDKQEHADGLLKDLMRASYPCMSLHGGIDQYDRDSIINDFKNGTCKLLVATSVAARGLDVKHLILVVNYSCPNHYEDYVHRAGRTGRAGNKGYAYTFITEDQARYAGDIIKALELSGTAVPPDLEKLWSDFKDQQKAEGKIIKKSSGFSGKGFKFDETEQALANERKKLQKAALGLQDSDDEDAAVDIDEQIESMFNSKKRVKDMAAPGTSSVPAPTAGNAEKLEIAKRLALRINAQKNLGIESQDVMQQATNAILRGGTILAPTVSAKTIAEQLAEKINAKLNYVPLEKQEEERQDGGQNESFKRYEEELEINDFPQTARWKVTSKEALQRISEYSEAAITIRGTYFPPGKEPKEGERKIYLAIESANELAVQKAKAEITRLIKEELIRLQNSYQPTNKGRYKVL [DDX46]	-0.607	47.7 °C	49.2 °C	-0.00451	3.63	9.43
MGRIFLDHIGGTRLFSCANCDTILTNRSELISTRFTGATGRAFLFNKVVNLQYSEVQDRVMLTGRHMVRDVSCKNCNSKLGWIYEFATEDSQRYKEGRVILERALVRESEGFEEHVPSDNS [YPEL5]	0.00475	50.7 °C	52.5 °C	-0.00616	0.121	-0.0508
MGRSGKLPSGVSAKLKRWKKGHSSDSNPAICRHRQAARSRFFSRPSGRSDLTVDAVKLHNELQSGSLRLGKSEAPETPMEEEAELVLTEKSSGTFLSGLSDCTNVTFSKVQRFWESNSAAHKEICAVLAAVTEVIRSQGGKETETEYFAALMTTMEAVESPESLAAVAYLLNLVLKRVPSPVLIKKFSDTSKAFMDIMSAQASSGSTSVLRWVLSCLATLLRKQDLEAWGYPVTLQVYHGLLSFTVHPKPKIRKAAQHGVCSVLKGSEFMFEKAPAHHPAAISTAKFCIQEIEKSGGSKEATTTLHMLTLLKDLLPCFPEGLVKSCSETLLRVMTLSHVLVTACAMQAFHSLFHARPGLSTLSAELNAQIITALYDYVPSENDLQPLLAWLKVMEKAHINLVRLQWDLGLGHLPRFFGTAVTCLLSPHSQVLTAATQSLKEILKECVAPHMADIGSVTSSASGPAQSVAKMFRAVEEGLTYKFHAAWSSVLQLLCVFFEACGRQAHPVMRKCLQSLCDLRLSPHFPHTAALDQAVGAAVTSMGPEVVLQAVPLEIDGSEETLDFPRSWLLPVIRDHVQETRLGFFTTYFLPLANTLKSKAMDLAQAGSTVESKIYDTLQWQMWTLLPGFCTRPTDVAISFKGLARTLGMAISERPDLRVTVCQALRTLITKGCQAEADRAEVSRFAKNFLPILFNLYGQPVAAGDTPAPRRAVLETIRTYLTITDTQLVNSLLEKASEKVLDPASSDFTRLSVLDLVVALAPCADEAAISKLYSTIRPYLESKAHGVQKKAYRVLEEVCASPQGPGALFVQSHLEDLKKTLLDSLRSTSSPAKRPRLKCLLHIVRKLSAEHKEFITALIPEVILCTKEVSVGARKNAFALLVEMGHAFLRFGSNQEEALQCYLVLIYPGLVGAVTMVSCSILALTHLLFEFKGLMGTSTVEQLLENVCLLLASRTRDVVKSALGFIKVAVTVMDVAHLAKHVQLVMEAIGKLSDDMRRHFRMKLRNLFTKFIRKFGFELVKRLLPEEYHRVLVNIRKAEARAKRHRALSQAAVEEEEEEEEEEEPAQGKGDSIEEILADSEDEEDNEEEERSRGKEQRKLARQRSRAWLKEGGGDEPLNFLDPKVAQRVLATQPGPGRGRKKDHGFKVSADGRLIIREEADGNKMEEEEGAKGEDEEMADPMEDVIIRNKKHQKLKHQKEAEEEELEIPPQYQAGGSGIHRPVAKKAMPGAEYKAKKAKGDVKKKGRPDPYAYIPLNRSKLNRRKKMKLQGQFKGLVKAARRGSQVGHKNRRKDRRP [RRP12]	-0.758	46.3 °C	49 °C	0.248	3.24	7.79
MGRVQLFEISLSHGRVVYSPGEPLAGTVRVRLGAPLPFRAIRVTCIGSCGVSNKANDTAWVVEEGYFNSSLSLADKGSLPAGEHSFPFQFLLPATAPTSFEGPFGKIVHQVRAAIHTPRFSKDHKCSLVFYILSPLNLNSIPDIEQPNVASATKKFSYKLVKTGSVVLTASTDLRGYVVGQALQLHADVENQSGKDTSPVVASLLQKVSYKAKRWIHDVRTIAEVEGAGVKAWRRAQWHEQILVPALPQSALPGCSLIHIDYYLQVSLKAPEATVTLPVFIGNIAVNHAPVSPRPGLGLPPGAPPLVVPSAPPQEEAEAEAAAGGPHFLDPVFLSTKSHSQRQPLLATLSSVPGAPEPCPQDGSPASHPLHPPLCISTGATVPYFAEGSGGPVPTTSTLILPPEYSSWGYPYEAPPSYEQSCGGVEPSLTPES [ARRDC1]	0.131	53.2 °C	52.1 °C	-0.0855	-1.09	-1.63
MGSAGLSRLHGLFAVYKPPGLKWKHLRDTVELQLLKGLNARKPPAPKQRVRFLLGPMEGSEEKELTLTATSVPSFINHPLVCGPAFAHLKVGVGHRLDAQASGVLVLGVGHGCRLLTDMYNAHLTKDYTVRGLLGKATDDFREDGRLVEKTTYDHVTREKLDRILAVIQGSHQKALVMYSNLDLKTQEAYEMAVRGLIRPMNKSPMLITGIRCLYFAPPEFLLEVQCMHETQKELRKLVHEIGLELKTTAVCTQVRRTRDGFFTLDSALLRTQWDLTNIQDAIRAATPQVAAELEKSLSPGLDTKQLPSPGWSWDSQGPSSTLGLERGAGQ [TRUB2]	-0.103	50.2 °C	50 °C	0.16	-0.241	0.385
MGSLFRSETMCLAQLFLQSGTAYECLSALGEKGLVQFRDLNQNVSSFQRKFVGEVKRCEELERILVYLVQEINRADIPLPEGEASPPAPPLKQVLEMQEQLQKLEVELREVTKNKEKLRKNLLELIEYTHMLRVTKTFVKRNVEFEPTYEEFPSLESDSLLDYSCMQRLGAKLGFVSGLINQGKVEAFEKMLWRVCKGYTIVSYAELDESLEDPETGEVIKWYVFLISFWGEQIGHKVKKICDCYHCHVYPYPNTAEERREIQEGLNTRIQDLYTVLHKTEDYLRQVLCKAAESVYSRVIQVKKMKAIYHMLNMCSFDVTNKCLIAEVWCPEADLQDLRRALEEGSRESGATIPSFMNIIPTKETPPTRIRTNKFTEGFQNIVDAYGVGSYREVNPALFTIITFPFLFAVMFGDFGHGFVMFLFALLLVLNENHPRLNQSQEIMRMFFNGRYILLLMGLFSVYTGLIYNDCFSKSVNLFGSGWNVSAMYSSSHPPAEHKKMVLWNDSVVRHNSILQLDPSIPGVFRGPYPLGIDPIWNLATNRLTFLNSFKMKMSVILGIIHMTFGVILGIFNHLHFRKKFNIYLVSIPELLFMLCIFGYLIFMIFYKWLVFSAETSRVAPSILIEFINMFLFPASKTSGLYTGQEYVQRVLLVVTALSVPVLFLGKPLFLLWLHNGRSCFGVNRSGYTLIRKDSEEEVSLLGSQDIEEGNHQVEDGCREMACEEFNFGEILMTQVIHSIEYCLGCISNTASYLRLWALSLAHAQLSDVLWAMLMRVGLRVDTTYGVLLLLPVIALFAVLTIFILLIMEGLSAFLHAIRLHWVEFQNKFYVGAGTKFVPFSFSLLSSKFNNDDSVA [ATP6V0A2]	-0.303	55.8 °C	56.5 °C	-0.0408	-2.85	-3.91
